Read-outs that look alike come from different tables or passages of the source.
How the values were obtained:
[1] = biological target: T1, Mutated SARS-CoV-2 (COVID-19) S protein (RBD), South African strain (K417N, E484K, N501Y) (SARS-CoV-2, UniProt P0DTC2 319-537)
[2] = biological target: T2, Mutated SARS-CoV-2 (COVID-19) S protein (RBD) E484K (SARS-CoV-2, UniProt P0DTC2 319-537); experiment: BLI; KD column of Table 2 repeats Table 4
[3] = biological target: T1, Mutated SARS-CoV-2 (COVID-19) S protein …; experiment: BLI; KD column of Table 2 repeats Table 4
[4] = biological target: T3, Spike RBD, WT (Example 7, Tables 4 and 2) (SARS-CoV-2, UniProt P0DTC2 319-541); experiment: BLI; KD column of Table 2 repeats Table 4
T3 construct: also called wildtype spike protein; Spike protein RBD

[5] = biological target: T4, Mutated SARS-CoV-2 (COVID-19) S protein (RBD) N501Y (SARS-CoV-2, UniProt P0DTC2 319-537); experiment: BLI; KD column of Table 2 repeats Table 4
T4 construct: also called N501Y: UK strain

[6] = biological target: T5, Mutated SARS-CoV-2 (COVID-19) S protein (RBD) F490L (SARS-CoV-2, UniProt P0DTC2 319-537); experiment: BLI; KD column of Table 2 repeats Table 4
[7] = biological target: T6, Mutated SARS-CoV-2 (COVID-19) S protein (RBD) N439K (SARS-CoV-2, UniProt P0DTC2 319-537); experiment: BLI; KD column of Table 2 repeats Table 4
[8] = biological target: T2, Mutated SARS-CoV-2 (COVID-19) S protein …; experiment: BLI, biotinylated SR4 on streptavidin sensor, spike RBD in solution, 1:1 fit
[9] = biological target: T1, Mutated SARS-CoV-2 (COVID-19) S protein …; experiment: as above
[10] = biological target: T3, Spike RBD, WT (Example 7, Tables 4 and …); experiment: as above
[11] = biological target: T4, Mutated SARS-CoV-2 (COVID-19) S protein …; experiment: as above
[12] = biological target: T5, Mutated SARS-CoV-2 (COVID-19) S protein …; experiment: as above
[13] = biological target: T6, Mutated SARS-CoV-2 (COVID-19) S protein …; experiment: as above

B1: Biotinylated SR4 (SR4 (5AzF) reacted with DBCO-biotin) (VHH)
VHH: QVQLVESGGGLVQAGGSLRLSCAASGFPVYSWNMWWYRQAPGKEREWVAAIESHGDSTRYADSVKGRFTISRDNAKNTVYLQMNSLKPEDTAVYYCYVWVGHTYYGQGTQVTVSA
notes: also called SR4 nanobody; biotin labeled SR4
**Q.** Which Kd [1] does the source give for B1 here?
**A.** 57.4 nM

**Q.** What about the Kd [2] of the same binder?
**A.** 31.8 nM

**Q.** What about the Kd [3] of the same binder?
**A.** 57 nM

**Q.** What about the Kd [4] of the same binder?
**A.** 17.9 nM

**Q.** What about the Kd [5] of the same binder?
**A.** 30.5 nM

**Q.** What about the Kd [6] of the same binder?
**A.** 42 nM

**Q.** And the Kd [7]?
**A.** 59.3 nM

**Q.** And the Kd [8]?
**A.** 31.8 nM

**Q.** And the koff [8]?
**A.** 0.0034 s⁻¹

**Q.** What about the kon [8] of the same binder?
**A.** 107000 M⁻¹ s⁻¹

**Q.** And the Kd [9]?
**A.** 57 nM

**Q.** What about the koff [9] of the same binder?
**A.** 0.00406 s⁻¹

**Q.** What about the kon [9] of the same binder?
**A.** 70800 M⁻¹ s⁻¹

**Q.** And the Kd [10]?
**A.** 17.9 nM

**Q.** What about the koff [10] of the same binder?
**A.** 0.00226 s⁻¹

**Q.** And the kon [10]?
**A.** 126000 M⁻¹ s⁻¹

**Q.** And the Kd [11]?
**A.** 30.5 nM

**Q.** And the koff [11]?
**A.** 0.0027 s⁻¹

**Q.** What about the kon [11] of the same binder?
**A.** 88600 M⁻¹ s⁻¹

**Q.** And the Kd [12]?
**A.** 42 nM

**Q.** And the koff [12]?
**A.** 0.00476 s⁻¹

**Q.** What about the kon [12] of the same binder?
**A.** 113000 M⁻¹ s⁻¹

**Q.** What about the Kd [13] of the same binder?
**A.** 59.3 nM

**Q.** What about the koff [13] of the same binder?
**A.** 0.00595 s⁻¹

**Q.** And the kon [13]?
**A.** 100000 M⁻¹ s⁻¹
